Values quoted from earlier work, collected in article PMC2647589.
pKd: −log10 of the molar value.

Target: MeTRH (UniProt P20396)
Chain of UniProt P20396 (P20396 whole entry, looked up): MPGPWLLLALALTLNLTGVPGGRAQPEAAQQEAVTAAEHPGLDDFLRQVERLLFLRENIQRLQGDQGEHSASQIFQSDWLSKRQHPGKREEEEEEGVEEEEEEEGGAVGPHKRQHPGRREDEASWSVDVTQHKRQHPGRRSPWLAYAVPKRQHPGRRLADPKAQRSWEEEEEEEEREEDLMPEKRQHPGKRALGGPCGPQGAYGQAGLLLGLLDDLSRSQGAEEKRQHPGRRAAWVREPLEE

## TRH receptor (from UniProt P21761)
  pKd: 8.70
